T1: C-terminal BTB/POZ containing fragment of KCTD1 (BTB/POZ1) (UniProt Q719H9 1-257)
T1 sequence: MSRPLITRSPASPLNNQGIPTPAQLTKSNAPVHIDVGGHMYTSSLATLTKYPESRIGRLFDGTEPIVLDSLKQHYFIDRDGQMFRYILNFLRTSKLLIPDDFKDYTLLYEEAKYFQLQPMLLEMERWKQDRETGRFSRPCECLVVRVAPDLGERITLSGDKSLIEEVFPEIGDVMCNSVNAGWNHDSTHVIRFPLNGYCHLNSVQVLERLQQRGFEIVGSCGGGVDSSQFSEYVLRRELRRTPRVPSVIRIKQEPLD


Legend:
Assay in all cases: MST
[1] = target: T1, C-terminal BTB/POZ containing fragment …
[2] = target: BTB/POZ domain of KCTD15 (BTB/POZ15) (UniProt Q96SI1)
[3] = target: C-terminal BTB/POZ containing fragment of KCTD1 (BTB/POZ1) (UniProt Q719H9)

Chain of BTB/POZ domain of KCTD15 (BTB/POZ15) (Q96SI1 whole entry, the tested form may be a part): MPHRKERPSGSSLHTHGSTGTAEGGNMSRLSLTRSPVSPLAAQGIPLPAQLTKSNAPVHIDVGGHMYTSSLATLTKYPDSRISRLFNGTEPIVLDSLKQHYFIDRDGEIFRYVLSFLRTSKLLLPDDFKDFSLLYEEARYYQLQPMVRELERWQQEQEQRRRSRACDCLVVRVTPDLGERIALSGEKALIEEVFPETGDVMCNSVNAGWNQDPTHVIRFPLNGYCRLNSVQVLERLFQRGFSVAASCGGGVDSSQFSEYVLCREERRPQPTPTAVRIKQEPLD

| Binder | Kd [1] [µM] | Kd [2] [µM] | Kd [3] [µM] |
| --- | --- | --- | --- |
| BTB/POZ domain of KCASH1 (KCTD11) (BTB/POZ11) (domain or fragment) GPVTLNVGGTLYSTTLETLTRFPDSMLGAMFRAGTPMPPNLNSQGGGHYFIDRDGKAFRHILNFLRLGRLDLPRGYGETALLRAEADFYQIRPLLDALRELEASQG | 0.8 ± 0.1 |  |  |
| KCASH2 (KCTD21), full length, recombinant (natural protein) MSDPITLNVGGKLYTTSLATLTSFPDSMLGAMFSGKMPTKRDSQGNCFIDRDGKVFRYILNFLRTSHLDLPEDFQEMGLLRREADFYQVQPLIEALQEKEVELSKAEKNAMLNITLNQRVQTVHFTVREAPQIYSLSSSSMEVFNANIFSTSCLFLKLLGSKLFYCSNGNLSSITSHLQDPNHLTLDWVANVEGLPEEEYTKQNLKRLWVVPANKQINSFQVFVEEVLKIALSDGFCIDSSHPHALDFMNNKIIRLIRYR |  | 6.6 | 3.9 |

Reference: article PMC10462845 (Neoplasia (New York, N.Y.), 2023)
